Here are results for 13 molecules from US20180273587A1 (AILERON THERAPEUTICS, published 2018).

Positions of bridges follow the written chain, without caps; N, C: chain ends. Non-standard residues stand in square brackets, D forms with d. R8 = C=CCCCCCC[C@@](C)(N)C(=O)O; S5 = C=CCCC[C@](C)(N)C(=O)O

The target in assay [1] is BCL-XL (UniProt Q07817). Description: Ki (Table 8); method not stated.
For assay [2], the target named is BCL-2 (UniProt P10415). As to the kind of experiment: Ki (Table 8); method not stated.
Chain of BCL-2 (UniProt P10415) (P10415 1-217 limits assumed): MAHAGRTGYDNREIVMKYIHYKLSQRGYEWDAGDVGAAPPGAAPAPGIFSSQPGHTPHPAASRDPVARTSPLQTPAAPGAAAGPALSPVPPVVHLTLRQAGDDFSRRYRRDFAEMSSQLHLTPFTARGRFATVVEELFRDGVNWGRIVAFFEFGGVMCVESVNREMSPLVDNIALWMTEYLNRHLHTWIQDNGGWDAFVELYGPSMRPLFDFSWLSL
Assay [3] deals with MCL-1 (UniProt Q07820). Description: Ki (Table 8); method not stated.
Chain of MCL-1 (UniProt Q07820) (Q07820 172-327 limits assumed): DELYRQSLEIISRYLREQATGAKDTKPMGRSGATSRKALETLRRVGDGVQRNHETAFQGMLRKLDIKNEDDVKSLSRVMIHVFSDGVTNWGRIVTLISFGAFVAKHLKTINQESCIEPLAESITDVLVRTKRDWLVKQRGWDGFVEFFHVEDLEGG
The target of assay [4] is T1, MCL-1 (UniProt Q07820 172-327, limits assumed).
T1 construct: Target of the Ki columns; also called Myeloid cell leukemia 1
T1 sequence (Q07820 172-327 limits assumed): as above
Description: Ki (Table 6); method not stated.

The target in assay [5] is T2, BCL-2 (UniProt P10415 1-217, limits assumed).
T2 construct: Target of the Ki columns
T2 sequence (P10415 1-217 limits assumed): as the sequence (P10415 1-217 limits assumed) above
Description: Ki (Table 6); method not stated.

For assay [6], the target named is T3, BCL-XL (UniProt Q07817 1-209).
T3 construct: Target of the Ki columns
T3 sequence (Q07817 1-209): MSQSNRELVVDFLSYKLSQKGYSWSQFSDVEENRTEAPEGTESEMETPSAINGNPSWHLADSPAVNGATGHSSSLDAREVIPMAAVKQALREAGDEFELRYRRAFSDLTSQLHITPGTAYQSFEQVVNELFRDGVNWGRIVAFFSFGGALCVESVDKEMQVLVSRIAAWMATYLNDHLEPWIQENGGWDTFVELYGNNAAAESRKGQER
Description: Ki (Table 6); method not stated.

For assay [7], the target named is T1, MCL-1. As to the kind of experiment: Ki (Table 8); method not stated.
The target in assay [8] is T3, BCL-XL. Description: Ki (Table 8); method not stated.
The target of assay [9] is T2, BCL-2. As to the kind of experiment: Ki (Table 8); method not stated.

Chain of BCL-XL (UniProt Q07817) (Q07817 1-209): as above

For orientation: Ki means a dissociation constant, usually derived from enzyme kinetics or from competition with a known ligand. For BIM-SAHBA1 (peptide), the Ki came to 6.2 nM with BCL-XL [1], 29.6 nM in the assay with BCL-2 [2] and 2.7 nM in the assay with MCL-1 [3].

B1: Cross-linked peptide #3 (peptide)
peptide: Ac-IWIAAALR[R8]IGDEFN[S5]YYA-NH2
modifications: staple 9-16
SMILES: CC[C@H](C)[C@H](NC(C)=O)C(=O)N[C@@H](Cc1c[nH]c2ccccc12)C(=O)N[C@H](C(=O)N[C@@H](C)C(=O)N[C@@H](C)C(=O)N[C@@H](C)C(=O)N[C@@H](CC(C)C)C(=O)N[C@@H](CCCNC(=N)N)C(=O)N[C@]1(C)CCCCCCC=CCCC[C@@](C)(C(=O)N[C@@H](Cc2ccc(O)cc2)C(=O)N[C@@H](Cc2ccc(O)cc2)C(=O)N[C@@H](C)C(N)=O)NC(=O)[C@H](CC(N)=O)NC(=O)[C@H](Cc2ccccc2)NC(=O)[C@H](CCC(=O)O)NC(=O)[C@H](CC(=O)O)NC(=O)CNC(=O)[C@H]([C@@H](C)CC)NC1=O)[C@@H](C)CC
As for B1, the values for the Ki with MCL-1 [4], in the assay with BCL-2 [5] and in the assay with BCL-XL [6] were 1 nM, 6 nM and 1 nM, respectively.

B2: Cross-linked peptide #16 (peptide)
peptide: IWIAQALRALGDAFNAYFA
modifications: not fully specified; N-terminal Ac; $r8 at residue 9 (column 154) and $ at residue 16 (column 161), crosslinked; hL at residue 10 (column 155); F4F at residue 18 (column 163); C-terminal NH2
In the case of B2, the Ki in the assay with MCL-1 [7] came to 27 nM; with BCL-XL [8] it was 13 nM.

B3: Cross-linked peptide #7 (peptide)
peptide: Ac-IWIAQALR[R8]IGDAAN[S5]YYA-NH2
modifications: staple 9-16
SMILES: CC[C@H](C)[C@H](NC(C)=O)C(=O)N[C@@H](Cc1c[nH]c2ccccc12)C(=O)N[C@H](C(=O)N[C@@H](C)C(=O)N[C@@H](CCC(N)=O)C(=O)N[C@@H](C)C(=O)N[C@@H](CC(C)C)C(=O)N[C@@H](CCCNC(=N)N)C(=O)N[C@]1(C)CCCCCCC=CCCC[C@@](C)(C(=O)N[C@@H](Cc2ccc(O)cc2)C(=O)N[C@@H](Cc2ccc(O)cc2)C(=O)N[C@@H](C)C(N)=O)NC(=O)[C@H](CC(N)=O)NC(=O)[C@H](C)NC(=O)[C@H](C)NC(=O)[C@H](CC(=O)O)NC(=O)CNC(=O)[C@H]([C@@H](C)CC)NC1=O)[C@@H](C)CC
B3: the values for the Ki with MCL-1 [4], with BCL-2 [5] and with BCL-XL [6] were 7.5 nM, 140 nM and 402 nM, respectively.

B4: Cross-linked peptide #13 (peptide)
peptide: Ac-IWIAQAAR[R8]IGDAFN[S5]YYA-NH2
modifications: staple 9-16
SMILES: CC[C@H](C)[C@H](NC(C)=O)C(=O)N[C@@H](Cc1c[nH]c2ccccc12)C(=O)N[C@H](C(=O)N[C@@H](C)C(=O)N[C@@H](CCC(N)=O)C(=O)N[C@@H](C)C(=O)N[C@@H](C)C(=O)N[C@@H](CCCNC(=N)N)C(=O)N[C@]1(C)CCCCCCC=CCCC[C@@](C)(C(=O)N[C@@H](Cc2ccc(O)cc2)C(=O)N[C@@H](Cc2ccc(O)cc2)C(=O)N[C@@H](C)C(N)=O)NC(=O)[C@H](CC(N)=O)NC(=O)[C@H](Cc2ccccc2)NC(=O)[C@H](C)NC(=O)[C@H](CC(=O)O)NC(=O)CNC(=O)[C@H]([C@@H](C)CC)NC1=O)[C@@H](C)CC
B4: the inhibition constant (Ki) came out at 501 nM with MCL-1 [4], 100000 nM in the assay with BCL-2 [5] and 100000 nM with BCL-XL [6].

B5: Cross-linked peptide #12 (peptide)
peptide: Ac-IWIAQALR[R8]IGNAFN[S5]YYA-NH2
modifications: staple 9-16
SMILES: CC[C@H](C)[C@H](NC(C)=O)C(=O)N[C@@H](Cc1c[nH]c2ccccc12)C(=O)N[C@H](C(=O)N[C@@H](C)C(=O)N[C@@H](CCC(N)=O)C(=O)N[C@@H](C)C(=O)N[C@@H](CC(C)C)C(=O)N[C@@H](CCCNC(=N)N)C(=O)N[C@]1(C)CCCCCCC=CCCC[C@@](C)(C(=O)N[C@@H](Cc2ccc(O)cc2)C(=O)N[C@@H](Cc2ccc(O)cc2)C(=O)N[C@@H](C)C(N)=O)NC(=O)[C@H](CC(N)=O)NC(=O)[C@H](Cc2ccccc2)NC(=O)[C@H](C)NC(=O)[C@H](CC(N)=O)NC(=O)CNC(=O)[C@H]([C@@H](C)CC)NC1=O)[C@@H](C)CC
Take B5: the Ki was determined as 195 nM with MCL-1 [4], 405 nM in the assay with BCL-2 [5] and 416 nM in the assay with BCL-XL [6].

B6: Cross-linked peptide #4 (peptide)
peptide: Ac-IWIAAALR[R8]IGDQFN[S5]YYA-NH2
modifications: staple 9-16
SMILES: CC[C@H](C)[C@H](NC(C)=O)C(=O)N[C@@H](Cc1c[nH]c2ccccc12)C(=O)N[C@H](C(=O)N[C@@H](C)C(=O)N[C@@H](C)C(=O)N[C@@H](C)C(=O)N[C@@H](CC(C)C)C(=O)N[C@@H](CCCNC(=N)N)C(=O)N[C@]1(C)CCCCCCC=CCCC[C@@](C)(C(=O)N[C@@H](Cc2ccc(O)cc2)C(=O)N[C@@H](Cc2ccc(O)cc2)C(=O)N[C@@H](C)C(N)=O)NC(=O)[C@H](CC(N)=O)NC(=O)[C@H](Cc2ccccc2)NC(=O)[C@H](CCC(N)=O)NC(=O)[C@H](CC(=O)O)NC(=O)CNC(=O)[C@H]([C@@H](C)CC)NC1=O)[C@@H](C)CC
Consider B6, for which the Ki in the assay with MCL-1 [4] was determined as 6 nM; with BCL-2 [5], 22 nM; with BCL-XL [6], 4 nM.

B7: Cross-linked peptide #8 (peptide)
peptide: Ac-IWIAQALR[R8]IGDQAN[S5]YYA-NH2
modifications: staple 9-16
SMILES: CC[C@H](C)[C@H](NC(C)=O)C(=O)N[C@@H](Cc1c[nH]c2ccccc12)C(=O)N[C@H](C(=O)N[C@@H](C)C(=O)N[C@@H](CCC(N)=O)C(=O)N[C@@H](C)C(=O)N[C@@H](CC(C)C)C(=O)N[C@@H](CCCNC(=N)N)C(=O)N[C@]1(C)CCCCCCC=CCCC[C@@](C)(C(=O)N[C@@H](Cc2ccc(O)cc2)C(=O)N[C@@H](Cc2ccc(O)cc2)C(=O)N[C@@H](C)C(N)=O)NC(=O)[C@H](CC(N)=O)NC(=O)[C@H](C)NC(=O)[C@H](CCC(N)=O)NC(=O)[C@H](CC(=O)O)NC(=O)CNC(=O)[C@H]([C@@H](C)CC)NC1=O)[C@@H](C)CC
Consider B7, for which the values for the Ki with MCL-1 [4], with BCL-2 [5] and with BCL-XL [6] were 1.4 nM, 43.9 nM and 24.9 nM, respectively.

B8: Cross-linked peptide #11 (peptide)
peptide: Ac-IWIAQALA[R8]IGDAFN[S5]YYA-NH2
modifications: staple 9-16
SMILES: CC[C@H](C)[C@H](NC(C)=O)C(=O)N[C@@H](Cc1c[nH]c2ccccc12)C(=O)N[C@H](C(=O)N[C@@H](C)C(=O)N[C@@H](CCC(N)=O)C(=O)N[C@@H](C)C(=O)N[C@@H](CC(C)C)C(=O)N[C@@H](C)C(=O)N[C@]1(C)CCCCCCC=CCCC[C@@](C)(C(=O)N[C@@H](Cc2ccc(O)cc2)C(=O)N[C@@H](Cc2ccc(O)cc2)C(=O)N[C@@H](C)C(N)=O)NC(=O)[C@H](CC(N)=O)NC(=O)[C@H](Cc2ccccc2)NC(=O)[C@H](C)NC(=O)[C@H](CC(=O)O)NC(=O)CNC(=O)[C@H]([C@@H](C)CC)NC1=O)[C@@H](C)CC
Take B8: the results for the Ki with MCL-1 [4], in the assay with BCL-2 [5] and with BCL-XL [6] were 73.8 nM, 1090 nM and 386 nM, respectively.

B9: Cross-linked peptide #10 (peptide)
peptide: Ac-IWIAQALR[R8]AGDQFN[S5]YYA-NH2
modifications: staple 9-16
SMILES: CC[C@H](C)[C@H](NC(C)=O)C(=O)N[C@@H](Cc1c[nH]c2ccccc12)C(=O)N[C@H](C(=O)N[C@@H](C)C(=O)N[C@@H](CCC(N)=O)C(=O)N[C@@H](C)C(=O)N[C@@H](CC(C)C)C(=O)N[C@@H](CCCNC(=N)N)C(=O)N[C@]1(C)CCCCCCC=CCCC[C@@](C)(C(=O)N[C@@H](Cc2ccc(O)cc2)C(=O)N[C@@H](Cc2ccc(O)cc2)C(=O)N[C@@H](C)C(N)=O)NC(=O)[C@H](CC(N)=O)NC(=O)[C@H](Cc2ccccc2)NC(=O)[C@H](CCC(N)=O)NC(=O)[C@H](CC(=O)O)NC(=O)CNC(=O)[C@H](C)NC1=O)[C@@H](C)CC
For B9, the results for the Ki with MCL-1 [4], in the assay with BCL-2 [5] and in the assay with BCL-XL [6] were 122 nM, 4.8 nM and 1.9 nM, respectively.

B10: Cross-linked peptide #9 (peptide)
peptide: Ac-IWIAQALR[R8]IADQFN[S5]YYA-NH2
modifications: staple 9-16
SMILES: CC[C@H](C)[C@H](NC(C)=O)C(=O)N[C@@H](Cc1c[nH]c2ccccc12)C(=O)N[C@H](C(=O)N[C@@H](C)C(=O)N[C@@H](CCC(N)=O)C(=O)N[C@@H](C)C(=O)N[C@@H](CC(C)C)C(=O)N[C@@H](CCCNC(=N)N)C(=O)N[C@]1(C)CCCCCCC=CCCC[C@@](C)(C(=O)N[C@@H](Cc2ccc(O)cc2)C(=O)N[C@@H](Cc2ccc(O)cc2)C(=O)N[C@@H](C)C(N)=O)NC(=O)[C@H](CC(N)=O)NC(=O)[C@H](Cc2ccccc2)NC(=O)[C@H](CCC(N)=O)NC(=O)[C@H](CC(=O)O)NC(=O)[C@H](C)NC(=O)[C@H]([C@@H](C)CC)NC1=O)[C@@H](C)CC
As for B10, the Ki in the assay with MCL-1 [4] stood at 116 nM; with BCL-2 [5] it was 25.6 nM; in the assay with BCL-XL [6], 7.7 nM.

B11: Cross-linked peptide #15 (peptide)
peptide: Ac-IWIAQALR[R8]IGDEFN[S5]YYARR-NH2
modifications: staple 9-16
SMILES: CC[C@H](C)[C@H](NC(C)=O)C(=O)N[C@@H](Cc1c[nH]c2ccccc12)C(=O)N[C@H](C(=O)N[C@@H](C)C(=O)N[C@@H](CCC(N)=O)C(=O)N[C@@H](C)C(=O)N[C@@H](CC(C)C)C(=O)N[C@@H](CCCNC(=N)N)C(=O)N[C@]1(C)CCCCCCC=CCCC[C@@](C)(C(=O)N[C@@H](Cc2ccc(O)cc2)C(=O)N[C@@H](Cc2ccc(O)cc2)C(=O)N[C@@H](C)C(=O)N[C@@H](CCCNC(=N)N)C(=O)N[C@@H](CCCNC(=N)N)C(N)=O)NC(=O)[C@H](CC(N)=O)NC(=O)[C@H](Cc2ccccc2)NC(=O)[C@H](CCC(=O)O)NC(=O)[C@H](CC(=O)O)NC(=O)CNC(=O)[C@H]([C@@H](C)CC)NC1=O)[C@@H](C)CC
On to B11, for which the Ki was found to be 10.6 nM with MCL-1 [7], 12.8 nM with BCL-2 [9] and 5.2 nM with BCL-XL [8].

B12: Cross-linked peptide #5 (peptide)
peptide: IWIAQALXAIGDAFNAYYA
modifications: N-terminal Ac; Cit at residue 8 (column 153); $r8 at residue 9 (column 154) and $ at residue 16 (column 161), crosslinked; C-terminal NH2
In the case of B12, the Ki with MCL-1 [4] is 7.5 nM; in the assay with BCL-2 [5], 212 nM; with BCL-XL [6], 110 nM.
